Results reported in publication PMC2890523, “Identification of archaeal proteins that affect the exosome function in vitro”.
One block for each molecule: values may come before it.

Assays:
[1] = molecular target: RNase PH ring (PaRrp41-PaRrp42 complex) (Pyrococcus abyssi)
[2] = molecular target: PaCsl4-exosome (Pyrococcus abyssi)
[3] = molecular target: PaRrp4-exosome (Pyrococcus abyssi) (UniProt Q9V120)
[4] = molecular target: PaCsl4-exosome (Pyrococcus abyssi); remark: listed apart in the source
[5] = molecular target: PaRrp4-exosome (Pyrococcus abyssi) (UniProt Q9V120); remark: listed apart in the source
PaSBDS [6] = molecular target: T1, PaSBDS (Pyrococcus abyssi, UniProt Q9V121 1-236); test: EMSA; 50-400 pmol; 1 pmol RNA in 20 ul; 20 mM Tris-HCl pH 8.0, 20 mM KCl, 2 mM MgCl2, 1 mM DTT, 100 ug/ml BSA, 0.8 U RNasin (or conditions of earlier work, ref 21), 37 C, 30 min; conditions: protein: recombinant, tags: pET-28a vector, Ni-NTA purified (His tag), label: 5'-32P
PaRrp41;PaRrp42;PaRrp4 [7] = molecular target: T2, PaRrp41;PaRrp42;PaRrp4 (Pyrococcus abyssi;Pyrococcus …, UniProt Q9V119;Q9V118;Q9V120 1-249;1-274;1-265, ||); test: EMSA; 10 mM NaH2PO4, 65 C, 15 min; 1 pmol RNA in 20 ul; 20 mM Tris-HCl pH 8.0, 20 mM KCl, 2 mM MgCl2, 1 mM DTT, 100 ug/ml BSA, 0.8 U RNasin (or conditions of earlier work, ref 21), 37 C, 30 min; conditions: protein: recombinant;recombinant;recombinant; tags: pET29a vector;pAE vector;; chain copies: 3;3;3; label: 5'-32P; can form intra- and inter-strand base pairs of low stability
T2 sequence 1: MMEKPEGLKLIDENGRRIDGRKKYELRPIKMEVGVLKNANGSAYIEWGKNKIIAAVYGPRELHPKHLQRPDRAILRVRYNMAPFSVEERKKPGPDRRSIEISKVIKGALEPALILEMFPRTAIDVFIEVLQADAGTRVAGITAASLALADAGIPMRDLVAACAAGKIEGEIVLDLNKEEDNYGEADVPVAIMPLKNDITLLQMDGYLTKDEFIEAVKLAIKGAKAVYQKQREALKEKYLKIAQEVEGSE
T2 sequence 2: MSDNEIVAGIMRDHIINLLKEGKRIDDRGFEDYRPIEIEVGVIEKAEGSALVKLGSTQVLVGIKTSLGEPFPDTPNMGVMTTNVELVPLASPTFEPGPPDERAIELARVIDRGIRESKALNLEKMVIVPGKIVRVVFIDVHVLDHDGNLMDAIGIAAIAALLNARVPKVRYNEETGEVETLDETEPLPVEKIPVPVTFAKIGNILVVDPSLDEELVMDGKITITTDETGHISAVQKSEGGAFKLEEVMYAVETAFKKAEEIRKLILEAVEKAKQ
T2 sequence 3: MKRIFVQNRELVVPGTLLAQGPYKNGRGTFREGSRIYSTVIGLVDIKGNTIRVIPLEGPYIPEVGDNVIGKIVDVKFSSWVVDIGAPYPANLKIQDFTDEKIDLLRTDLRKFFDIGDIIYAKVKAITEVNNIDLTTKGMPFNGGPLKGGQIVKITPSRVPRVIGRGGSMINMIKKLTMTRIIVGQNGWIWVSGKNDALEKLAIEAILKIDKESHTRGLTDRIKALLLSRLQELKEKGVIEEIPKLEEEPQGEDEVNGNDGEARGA

PaRrp41;PaRrp42;PaCsl4 [8] = molecular target: T3, PaRrp41;PaRrp42;PaCsl4 (Pyrococcus abyssi;Pyrococcus …, UniProt Q9V119;Q9V118;Q9V2M2 1-249;1-274;1-199, ||); test: as above; conditions: protein: recombinant;recombinant;recombinant; tags: pET29a vector;pAE vector;pET28a vector; chain copies: 3;3;3; label: 5'-32P; can form intra- and inter-strand base pairs of low stability
T3 sequence 1: T2 sequence 1
T3 sequence 2: T2 sequence 2
T3 sequence 3: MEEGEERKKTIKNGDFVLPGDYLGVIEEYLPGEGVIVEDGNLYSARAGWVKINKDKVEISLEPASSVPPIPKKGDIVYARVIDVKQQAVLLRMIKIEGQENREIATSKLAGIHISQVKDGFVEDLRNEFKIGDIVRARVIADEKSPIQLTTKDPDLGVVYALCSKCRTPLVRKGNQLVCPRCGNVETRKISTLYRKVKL

PaRrp41;PaRrp42 [9] = molecular target: T4, PaRrp41;PaRrp42 (Pyrococcus abyssi;Pyrococcus abyssi, UniProt Q9V119;Q9V118 1-249;1-274, |); test: EMSA; 10 mM NaH2PO4, 65 C, 15 min; less efficient than holo-exosomes; 1 pmol RNA in 20 ul; 20 mM Tris-HCl pH 8.0, 20 mM KCl, 2 mM MgCl2, 1 mM DTT, 100 ug/ml BSA, 0.8 U RNasin (or conditions of earlier work, ref 21), 37 C, 30 min; conditions: protein: recombinant;recombinant; tags: pET29a vector;pAE vector; chain copies: 3;3; label: 5'-32P; can form intra- and inter-strand base pairs of low stability
T4 sequence 1: T2 sequence 1
T4 sequence 2: T2 sequence 2

PaRrp41;PaRrp42 [10] = molecular target: T4, PaRrp41;PaRrp42; test: EMSA; no phosphate added; PaRrp4-exosome binds 3-fold more efficiently; some RNA degradation; 1 pmol RNA in 20 ul; 20 mM Tris-HCl pH 8.0, 20 mM KCl, 2 mM MgCl2, 1 mM DTT, 100 ug/ml BSA, 0.8 U RNasin (or conditions of earlier work, ref 21), 37 C, 30 min; conditions: protein: recombinant;recombinant; tags: pET29a vector;pAE vector; chain copies: 3;3; label: 5'-32P; single strand
PaSBDS [11] = molecular target: T1, PaSBDS; test: EMSA; 200 pmol; smear, low stability complex; 1 pmol RNA in 20 ul; 20 mM Tris-HCl pH 8.0, 20 mM KCl, 2 mM MgCl2, 1 mM DTT, 100 ug/ml BSA, 0.8 U RNasin (or conditions of earlier work, ref 21), 37 C, 30 min; conditions: protein: recombinant; tags: pET-28a vector, Ni-NTA purified (His tag); label: 5'-32P; single strand
PaRrp41;PaRrp42;PaCsl4 [12] = molecular target: T3, PaRrp41;PaRrp42;PaCsl4; test: EMSA; no phosphate added; 1 pmol RNA in 20 ul; 20 mM Tris-HCl pH 8.0, 20 mM KCl, 2 mM MgCl2, 1 mM DTT, 100 ug/ml BSA, 0.8 U RNasin (or conditions of earlier work, ref 21), 37 C, 30 min; conditions: protein: recombinant;recombinant;recombinant; tags: pET29a vector;pAE vector;pET28a vector; chain copies: 3;3;3; label: 5'-32P; single strand
PaRrp41;PaRrp42;PaRrp4 [13] = molecular target: T2, PaRrp41;PaRrp42;PaRrp4; test: EMSA; no phosphate added; 9-fold vs PaCsl4-exosome; 1 pmol RNA in 20 ul; 20 mM Tris-HCl pH 8.0, 20 mM KCl, 2 mM MgCl2, 1 mM DTT, 100 ug/ml BSA, 0.8 U RNasin (or conditions of earlier work, ref 21), 37 C, 30 min; conditions: protein: recombinant;recombinant;recombinant; tags: pET29a vector;pAE vector;; chain copies: 3;3;3; label: 5'-32P; single strand

decrease in poly-rA binding by the exosome complex (EMSA, 1-20 pmol complex) in the presence of 100 pmol PaNip7 [1]: 3 fold
decrease in poly-rA binding by the exosome complex (EMSA, 1-20 pmol complex) in the presence of 100 pmol PaNip7 [2]: 20 fold
decrease in poly-rA binding by the exosome complex (EMSA, 1-20 pmol complex) in the presence of 100 pmol PaNip7 [3]: 40 fold
inhibition of the RNase activity on 14-mer poly-rA (1, 5 or 10 pmol complex, 65°C, 10 mM NaH2PO4) by 100 pmol PaNip7 [4]: 6.1 fold
inhibition of the RNase activity on 14-mer poly-rA (1, 5 or 10 pmol complex, 65°C, 10 mM NaH2PO4) by 100 pmol PaNip7 [5]: 3.8 fold
Molecule: PaNip7 (natural protein)

Molecule: CCCCCCCCCCCCC (ssRNA) [poly-rC 13-mer]
binding result (PaSBDS [6]; single strand): no binding

Molecule: UUAUUAUUUAUUUAUUAUUUA (ssRNA) [poly-rAU 21-mer]
binding result (PaSBDS [6]; can form intra- and inter-strand base pairs of low stability): binds
binding result (PaRrp41;PaRrp42;PaRrp4 [7]): binds
binding result (PaRrp41;PaRrp42;PaCsl4 [8]): binds
binding result (PaRrp41;PaRrp42 [9]): binds

Molecule: AAAAAAAAAAAAAA (ssRNA) [poly-rA 14-mer]
binding result (PaRrp41;PaRrp42 [10]): binds
binding result (PaSBDS [11]): binds
binding signal (PaRrp41;PaRrp42;PaCsl4 [12]): 9 fold less efficient than PaRrp4-exosome
binding signal (PaRrp41;PaRrp42;PaRrp4 [13]): 3 fold vs RNase PH ring
